This passage reports neutralization potency compared to wildtype, JRCSF pseudovirus entry, fold less binding than to RSC3 and neutralization potency, JR-CSF pseudovirus results from patent US20160289305A1.

In assay [1] the target is JR-CSF gp120 D279A (HIV-1) (UniProt P20871). Kind of assay: cell-based or functional assay.
The target in assay [2] is ΔRSC3. Kind of assay: method not given.
For assay [3], the target named is JR-CSF gp120 N276A (HIV-1) (UniProt P20871). As to the kind of experiment: cell-based or functional assay.

Regarding VRC-PG-04 (antibody), in assay [1], the neutralization potency compared to wildtype, JRCSF pseudovirus entry is below 10%.

The substance VRC-PG04b (antibody) came in with a fold less binding than to RSC3 in assay [2] above 100 fold.

For the substance VRC01 (antibody), the neutralization potency, JR-CSF pseudovirus in assay [3] came to 4 fold.
